Experimental data from patent publication US20200231645A1.

What was measured:
[1] = target: PCSK9 (UniProt Q8NBP7); assay: cell-based or functional assay
[2] = target: human GLP-1 receptor (human) (UniProt P43220); assay: cell-based or functional assay
Sequence of human GLP-1 receptor (human) (P43220 24-463): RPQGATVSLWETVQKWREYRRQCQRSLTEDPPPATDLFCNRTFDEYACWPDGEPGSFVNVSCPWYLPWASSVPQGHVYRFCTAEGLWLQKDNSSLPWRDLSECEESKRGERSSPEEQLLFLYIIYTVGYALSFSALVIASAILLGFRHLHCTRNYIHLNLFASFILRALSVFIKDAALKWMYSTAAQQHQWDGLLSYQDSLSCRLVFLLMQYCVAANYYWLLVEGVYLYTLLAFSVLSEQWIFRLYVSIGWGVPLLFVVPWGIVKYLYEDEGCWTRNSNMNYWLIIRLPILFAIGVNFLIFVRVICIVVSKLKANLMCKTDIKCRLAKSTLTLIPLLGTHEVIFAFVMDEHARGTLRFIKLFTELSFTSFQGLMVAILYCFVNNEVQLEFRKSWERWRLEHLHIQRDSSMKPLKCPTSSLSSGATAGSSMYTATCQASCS

| Substance | LDL-R expression in mouse liver, Percentage of baseline (%), dose of inhibitor 22 nmol/kg [1] [%] | EC50 (pM) 0% HSA [2] [pM] | EC50 (pM) 1% HSA [2] [pM] |
| --- | --- | --- | --- |
| Alirocumab (antibody) | 157 |  |  |
| Semaglutide (peptide) |  | 7.3 | 210 |
